Experimental data from patent US20140011747A1 (WISCONSIN ALUMNI RESEARCH FOUNDATION, published 2014).
One block for each binder: values may come before it. Ends that are not written are not given here.

Columns and labels:
[1] = target: T1, epidermal growth factor receptor (EGFR), endogenous in human cell lines (human, UniProt P00533 25-1210); test: cell-based or functional assay
[2] = target: T1, epidermal growth factor receptor …; test: co-immunoprecipitation of mouse syndecan chimeras from HaCat cells, western blot
Experimental: (FIG. 6A) Mouse syndecan chimeras in which their ectodomains are switched are expressed in HaCat cells, then immunoprecipitated with antibodies specific for the mouse syndecan ectodomains. […] HER2 or EGFR are immunoprecipitated from the lysates directly for comparison.
(§1) Cells were washed once with washing buffer (50 mM Hepes, 50 mM NaCl and 10 mM EDTA, pH 7.4) and lysed for 20 min on ice in 1% Triton X-100 containing a 1:1000 dilution of protease inhibitor mixture set III (Calbiochem) in washing buffer. Cell debris was removed by centrifugation at 20,000 g for 15 min at 4° C. […] Visualization of immune-reactive bands was performed using ECF reagent (GE Healthcare) and scanned on a Typhoon Trio Variable Mode Imager (GE-Healthcare) in blue fluorescence.

[3] = target: T2, β4^R1733A mutant of the β4 cytoplasmic domain (binding construct) (human, UniProt P16144-2 1677-1752); test: binding of β4 cytoplasmic domain mutants to syndecan
T2 construct: not shown: 6×His tag and leader of the pTRC-His A vector
T2 sequence (looked up): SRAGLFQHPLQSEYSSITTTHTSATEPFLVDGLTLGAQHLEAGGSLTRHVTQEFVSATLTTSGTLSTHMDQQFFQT

[4] = target: T1, epidermal growth factor receptor …; test: co-immunoprecipitation from lysates of MCF10A and BT474 cells, western blot
Experimental: as §1

- activity against EGF-stimulated cell migration, relative to SSTNEGFR [1]: ≥ 100 fold reduction
B1: SSTNEGFR synthetic peptide truncated of amino acids 126-131 (peptide)
peptide: NHIPERAGSGSQVPTEPKKLEENEVIPKRISPVEESEDV

- IC50, EGF-stimulated chemotaxis of MCF10A cells or HaCat keratinocytes [1]: 100 to 300 nM
B2: GST-S4ED, recombinant Sdc4 ectodomain fused to GST (other, UniProt P31431 19-145, looked up, not shown: a dimerising Fc or GST)
chain: ESIRETEVIDPQDLLEGRYFSGALPDDEDVVGPGQESDDFELSGSGDLDDLEDSMIGPEVVHPLVPLDNHIPERAGSGSQVPTEPKKLEENEVIPKRISPVEESEDVSNKVSMSSTVQGSNIFERTE

- binding result [2]: no binding
B3: mouse syndecan chimera: mSdc4 with its ectodomain swapped for that of Sdc1 (receptor, UniProt P18828 23-255, looked up)
chain: QIVAVNVPPEDQDGSGDDSDNFSGSGTGALPDTLSRQTPSTWKDVWLLTATPTAPEPTSSNTETAFTSVLPAGEKPEEGEPVLHVEAEPGFTARDKEKEVTTRPRETVQLPITQRASTVRVTTAQAAVTSHPHGGMQPGLHETSAPTAPGQPDHQPPRVEGGGTSVIKEVVEDGTANQLPAGEGSGEQDFTFETSGENTAVAAVEPGLRNQPPVDEGATGASQSLLDRKEVLGVLAALIVGGVVGILFAVFLILLLVYRMKKKDEGSYDLGKKPIYKKAPTNEFYA
notes: extracellular domain;domain: transmembrane and cytoplasmic domains; Expressed in HaCat cells; also called Sdc4 displaying the Sdc1 ectodomain

- binding result [3]: no binding
B4: GST-S1CD, Sdc1 cytoplasmic domain fused to GST (other)
chain: {GST}-RMKKKDEGSYSLEEPKQANGGAYQKPTKQEEFYA
notes: The result sentences say only Sdc1; not shown: glutathione S-transferase (GST) fusion partner

- activity against EGF-stimulated cell migration, relative to SSTNEGFR [1]: 10 fold reduction
B5: SSTNEGFR synthetic peptide with amino acids 99-108 mutated to alanine (peptide)
peptide: NHIPERAGSGSQAAAAAAAAAANEVIPKRISPVEESEDVSNKVSM

- IC50, EGF-stimulated migration of MCF10A cells, scratch wound closure [1]: 100 to 300 nM
B6: SSTNEGFR, synthetic peptide of amino acids 87-131 of the human Sdc4 ectodomain (peptide)
peptide: NHIPERAGSGSQVPTEPKKLEENEVIPKRISPVEESEDVSNKVSM

- binding result [4]: no binding
B7: syndecan-1 (Sdc1), human, endogenous in human cell lines (receptor, UniProt P18827 23-310, looked up)
chain: QIVATNLPPEDQDGSGDDSDNFSGSGAGALQDITLSQQTPSTWKDTQLLTAIPTSPEPTGLEATAASTSTLPAGEGPKEGEAVVLPEVEPGLTAREQEATPRPRETTQLPTTHLASTTTATTAQEPATSHPHRDMQPGHHETSTPAGPSQADLHTPHTEDGGPSATERAAEDGASSQLPAAEGSGEQDFTFETSGENTAVVAVEPDRRNQSPVDQGATGASQGLLDRKEVLGGVIAGGLVGLIFAVCLVGFMLYRMKKKDEGSYSLEEPKQANGGAYQKPTKQEEFYA
notes: whole, on cells; Used as the comparison for Sdc4 in co-immunoprecipitation
